Source: article PMC7469880

Target: FIRΔexon2-FLAG (splice variant of FIR lacking exon 2, FLAG-tagged) (human)
Test: co-IP

Substance	amount detected relative to the FIR–FLAG complex (1.0)
SAP130 (subunit of splicing factor 3b), endogenous in HeLa (from UniProt Q15393 1-1217) (natural protein)	0.35
SAP155 (subunit of splicing factor 3b), endogenous in HeLa (from UniProt O75533 1-1304) (natural protein)	0.1
